Experiment: yeast display, Sf9 membrane polyspecificity reagent, FACS + sequencing; frameworks hold sequencing errors
How it was run: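 Using colony PCR, genes from sorted yeast display clones were amplified, then sequenced on MiSeq at 2 × 250 and filtered by CDR length. The clones had been stained with 10% biotinylated, detergent-solubilized Sf9 membrane reagent for 1 hour at 4 °C and sorted by FACS into low and high (top ~1%) gates on anti-HA and streptavidin fluorescence. Polyreactivity labels come from the gate of origin.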
In the case of “QVQLVESGGGLVQAGGSLRLSCAASGLIFLRYAMGWYRQAPGTERELVAVISSGGRTYYADSVKGRFTISRDNAKNTVYLQMNSLKPEDTAVYYCAARTRSYWGTYGSYHYDYWGQGTQVTVSS”, the “polyreactivity (PSR sort gate)” value is reported as “high polyreactivity”.
With “QVQLVESGGGLVQAGGSLRLSCAASGLIFLSHTMGWYRQAPGKERELVATIDGGAGSTYYADSVKGRFTFSRDNAKNTVYLQMNSLKPEDTAVYYCAATTIPGWFGSFPVSAGDYWGQGTQVTVSS” the “polyreactivity (PSR sort gate)” value was “low polyreactivity”.
In the case of “QVQLVESGGGLVQAGGSLRLSCAASGLIFLWYAMGWYRQAPGKERELVAAIRSSGDSTYYADSVKGRFTISRDNAKNTVYLQMNSLKPEDTAVYYCNRRKTNSRYDYCGQGTQVTVSS”, the “polyreactivity (PSR sort gate)” value is reported as “low polyreactivity”.
In the case of “QVQLVESGGGLVQAGGSLRLSCAASGLIFNIYAMGWYRQAPGKARELVATIRYSGGSTNYADSVKGRFTISRDNAKNTVYLQMNSLKPEVTAVYYCNAGYYPTGYDYWGQGTQVTVSW”, the “polyreactivity (PSR sort gate)” value is reported as “low polyreactivity”.
In the case of “QVQLVESGGGLVQAGGSLRLSCAASGLIFNIYAMGWYRQAPGKERELVAAISKSGGSTYYADSVKGRFTISRDNAKNTVYLQMNSLKPEDTAVYYCAVRSMRVDKYGYWGQGTQVTVSS”, the “polyreactivity (PSR sort gate)” value is reported as “high polyreactivity”.
With “QVQLVESGGGLVQAGGSLRLSCAASGLIFNNYAMGWYRQAPGKERELVATISRTGTSTYYADSVKGRFTISRDNAKNTVYLQMNSLKPEDTAVYYCNAVIQLFEWGWDDEYDYWGQGTQVTVSS” the “polyreactivity (PSR sort gate)” value was “low polyreactivity”.
In the case of “QVQLVESGGGLVQAGGSLRLSCAASGLIFNRNDMGRYRQAPGKETELVAAISGDGGITYYADSVKGRFTISRDNAKNTVYLQMNSLKPEDTAVYYCNAGFTWGDWYDYWGQGTQVTVSS”, the “polyreactivity (PSR sort gate)” value is reported as “low polyreactivity”.
For “QVQLVESGGGLVQAGGSLRLSCAASGLIFNYYAMGWYRQAPGKERELVAAISYNGGTTYYADSVKGRFTISRDNAKNTVYLQMNSLKPEDTAVYYCAAEQLVSGYDYWGQGTQVTVSS”, the “polyreactivity (PSR sort gate)” value was “low polyreactivity”.
For “QVQLVESGGGLVQAGGSLRLSCAASGLIFPFYTMGWYRQAPGKERELVASISSGASTYYADSVKGRFTISRDNAKNTVYLQMNSLKPEDTAVYYCNADTFAWEGQRKWFAYDYWGQGTQVTVSS”, the “polyreactivity (PSR sort gate)” value was “low polyreactivity”.
With “QVQLVESGGGLVQAGGSLRLSCAASGLIFPSYAMGWYRQAPGKEMELVAAITFSGSDTNYADSVKGRFTISRDNAKNTVYLQMNSLKPEDTAVAYCAAAYFDFWGWLHDYWGQGTQVTVSS” the “polyreactivity (PSR sort gate)” value was “low polyreactivity”.
With “QVQLVESGGGLVQAGGSLRLSCAASGLIFPTNAMGWYRPAPGKERELVAAISSVGSTYYADSVKGRFTISRDNAKNTVYLQMNSLKPEDTAVYYCAAYWYGSQYKWRYDYWGQGTQVTVSS” the “polyreactivity (PSR sort gate)” value was “low polyreactivity”.
With “QVQLVESGGGLVQAGGSLRLSCAASGLIFPWTYAMGWYRQAPGKEREFVAAITSSDGSTYYADSVKGRFTISRDNAKNTVYLQMNSLKPEDTAVYYCAAVGWDYDWDYYYWGQGTQVTVSS” the “polyreactivity (PSR sort gate)” value was “high polyreactivity”.
In the case of “QVQLVESGGGLVQAGGSLRLSCAASGLIFPYYAMGWNRQAPGKESELVAASSGSGGRTYYADSVKGRFTISRDNAKITVYLQMNSRKPEDTAVYYCAAAVLDSYTRYIWYIYDYWGQGTQVTVSS”, the “polyreactivity (PSR sort gate)” value is reported as “high polyreactivity”.
In the case of “QVQLVESGGGLVQAGGSLRLSCAASGLIFPYYAMGWYRPAPGKERELVAAISRSGDSTYYADSVKGRFTISRDNAKNTVYLQMYSLKPEDTAVYYCAAVLSYSYVRYNYWGQGTQVNVSS”, the “polyreactivity (PSR sort gate)” value is reported as “high polyreactivity”.
For “QVQLVESGGGLVQAGGSLRLSCAASGLIFPYYAMGWYRQAHGKERELVAAITRRGGSTYYADSVKGRFTISRDNAKNTVYLQMNSLKPEDTAVYYCNKVDQGRYGYWGQGTQVTVSS”, the “polyreactivity (PSR sort gate)” value was “high polyreactivity”.
For “QVQLVESGGGLVQAGGSLRLSCAASGLIFQRNTMGWYRQAPGKERELVAAISRSGGSTYYADSVKGRFTISRDNAKNTVYLQMNSLKPEDTAVYYCAALIFRHRGKDDDYWGQGTQVTVSS”, the “polyreactivity (PSR sort gate)” value was “high polyreactivity”.
With “QVQLVESGGGLVQAGGSLRLSCAASGLIFQYYVMGWYRQAPGKERELVAAISARGGGTYYADSVKGRFTISRDNEKITVYLQMNSLKPEDTAVYYCAADFGTIRVYSGDYWGQGTQVTVSS” the “polyreactivity (PSR sort gate)” value was “high polyreactivity”.
With “QVQLVESGGGLVQAGGSLRLSCAASGLIFRAYAMGWYRQAPGKERELVAAISRNGGSTYYADSVKGRFTISRDNAKTTVYLQMNSLKPEDTAVYYCNKVSRSSVYLDYYYWGQGTQVTVSS” the “polyreactivity (PSR sort gate)” value was “high polyreactivity”.
For “QVQLVESGGGLVQAGGSLRLSCAASGLIFRAYAMGWYRQAPGKERELVAAITRSGGSTYYADSVKGRFTISRDNAKNTVDLQMNSLKPEDTAVYYCATAQWVGYWDDYWGQGTQVTVSS”, the “polyreactivity (PSR sort gate)” value was “high polyreactivity”.
For “QVQLVESGGGLVQAGGSLRLSCAASGLIFRGYVMGWYRQAPGKERELVAAISRRGVNTYYADSVKGRFTISRDNAKNTFYLQMNSLKPEDTAVYYCNAYVHTQGGDYWGQGTQVTVSS”, the “polyreactivity (PSR sort gate)” value was “high polyreactivity”.
In the case of “QVQLVESGGGLVQAGGSLRLSCAASGLIFRHYAMGWYRQAPGKERELVAVISSGAGTYYADSVKGRFTISRDNAKNTVYLQMISMKPEDTAVYYSARDLYYRYRYFITGLYDSWGQGTQVTVSS”, the “polyreactivity (PSR sort gate)” value is reported as “low polyreactivity”.
For “QVQLVESGGGLVQAGGSLRLSCAASGLIFRIYAMGWYRQAPGKERELVAAISSTGSRTYYADSVKGRFTISRDNAKNTVYLQMNSLKPEDTAVYYCAAKAYINNYDYWGQGTQVTVSS”, the “polyreactivity (PSR sort gate)” value was “high polyreactivity”.
With “QVQLVESGGGLVQAGGSLRLSCAASGLIFRKYAMGWYRQAPGKERELVAAISRSGGSTYYADSVKGRFTISRDNAKTTVYLQMNSLKPEDTAVYYGAAQQHYGDGYWGQGTQVTVSS” the “polyreactivity (PSR sort gate)” value was “high polyreactivity”.
With “QVQLVESGGGLVQAGGSLRLSCAASGLIFRLYAMGWYIQAPGKERELVAAISGGGGSTYYADSVKGRFTISRDNAKNTVYLQMNSLKPEDTAVYYCAATYSRGYWWSEYDYWGQGTQVTVSS” the “polyreactivity (PSR sort gate)” value was “low polyreactivity”.
In the case of “QVQLVESGGGLVQAGGSLRLSCAASGLIFRNYAMGWYRQAPGKERELVAAISSGGDNTYYADSVKGRFTISRDNAKNTVYLQMNSLKPEDTAVYYCAAGRYVGPSYYAYGYWGQGTQVTVSS”, the “polyreactivity (PSR sort gate)” value is reported as “high polyreactivity”.
For “QVQLVESGGGLVQAGGSLRLSCAASGLIFRRYALGWYRQAPGKERELVAVISSGGRTYYADSVKGRFTISRDNAKNTVYLQMNSLKPEDTAVYYCAARTRSYWGTYGSYHYDYWGQGTQVTVSS”, the “polyreactivity (PSR sort gate)” value was “high polyreactivity”.
With “QVQLVESGGGLVQAGGSLRLSCAASGLIFRSYAMGWYRQEPGKERELVARISIRGGSTYYADSVKGRFTISRDNAKNTVYLQMNSLKPEDTAVYYCAADYASWSNWGYEYWGQGTQVTVSS” the “polyreactivity (PSR sort gate)” value was “high polyreactivity”.
With “QVQLVESGGGLVQAGGSLRLSCAASGLIFRTYTMGWYRQAPGKERELVATITRRGGTTYYADSVKGRFTISRDNAKNTVYLQMNSLKPEDTAVYYCAKSPYYTWKYDYWGQGTQVTVSS” the “polyreactivity (PSR sort gate)” value was “high polyreactivity”.
For “QVQLVESGGGLVQAGGSLRLSCAASGLIFRWYAMGWSRQAPGKEWELVAAINYSGGRTYYADSVKGRFTISRDNAKNTVYLQMNSLKPEDTAVYYCAADGTYVWGSEEGNYWGQGTQVTVSS”, the “polyreactivity (PSR sort gate)” value was “low polyreactivity”.
With “QVQLVESGGGLVQAGGSLRLSCAASGLIFRYNAMGWYRQAPGKEMELVASITSDGSTNYADSVKGRFTISRDNAKNTVYLQMNSLKPEDTAVYYCAADGYTYWYYQLIPDYDYWGQGTQVTVSS” the “polyreactivity (PSR sort gate)” value was “low polyreactivity”.
In the case of “QVQLVESGGGLVQAGGSLRLSCAASGLIFRYYAMGWYRQAPGKERELVAAISYSGGRTYYADSVKGRFTISRDNAKNTVYLQMNSLKPEDTAVYYCAAVDRRGYRYALDYWGQGTQVTVSS”, the “polyreactivity (PSR sort gate)” value is reported as “high polyreactivity”.

Reference: the nanobody polyreactivity screen of Harvey et al. (2022)
